According to US20260234121A1, “DERIVATIVES, IMMUNOGENS, AND ANTIBODIES AND USE OF THE SAME IN DETECTION OF ECSTASY-CLASS COMPOUNDS” (Siemens Healthcare Diagnostics Inc., priority 2023, published 2026):
Where a chain is given by its changes, count along the chain named.

B1: 178K 1B2 mAb: mouse monoclonal antibody raised against E1-KLH (56); IgG2b, κ; heavy chain SEQ ID NO 84, light chain SEQ ID NO 108 (antibody)
heavy: MNFGLSLIFLALILKGVQCEVQLVESGGDLVKPGGSLKLSCAASGFTFTNYVMSWVRQTPDKRLEWVATINSGGRYAYYPDSVKGRFTISRDNAKNTLYLQMSSLKSEDTAMYYCAGGNNLDYWGQGTTLTVSSAKTTPPSVYPLAPGCGDTTGSSVTLGCLVKGYFPESVTVTWNSGSLSSSVHTFPALLQSGLYTMSSSVTVPSSTWLSQTVTCSVAHPASSTTVDKKLEPSGPISTIKPCPPCKECHKCPAPNLEGGPSVFIFPPNIKDVLMISLTPKVTCVVVDVSEDDPDVQISWFVNNVEVHTAQTQTHREDYNSTIRVVSALPIQHQDWMSGKEFKCKVNNKDLPSPIERTISKIKGLVRAPQVYILPPPAEQLSRKDVSLTCLVVGFNPGDISVEWTSNGHTEENYKDTAPILDSDGSYFIYSKLNMKTSKWEKTDSFSCNVRHEGLKNNYLKKTISRSPGK
light: MRFSAQLLGLLVLWIPGSTADIVMTQAAFSNPVTLGTSASISCRSSKSLLQRNGITYLYWYLQKPGQSPQLLIYRLSNLASGVPDRFSSSGSGTDFTLRISRVEAEDVGVYYCGQDLELPYTFGGGTKLEIKRADAAPTVSIFPPSSEQLTSGGASVVCFLNNFYPKDINVKWKIDGSERQNGVLNSWTDQDSKDSTYSMSSTLTLTKDEYERHNSYTCEATHKTSTSPIVKSFNRNEC
B2: 178K 4E11 mAb: mouse monoclonal antibody raised against E1-KLH (56); IgG2b, κ; heavy chain SEQ ID NO 89, light chain SEQ ID NO 113 (antibody)
heavy: B1 heavy with T49S, K62M, A77T, S103N, M112I
light: B1 light with L76M
B3: 178K 1E11 mAb: mouse monoclonal antibody raised against E1-KLH (56); IgG2b, κ; heavy chain SEQ ID NO 183, light chain SEQ ID NO 185 (antibody)
heavy: B1 heavy with L30F, T49S, A77T, S103N, E108D, M112I, A116S, N120Y
light: B1 light with Y59H, L76M, D85E
B4: 178K 1F4 mAb: mouse monoclonal antibody raised against E1-KLH (56); IgG2b, κ; heavy chain SEQ ID NO 85, light chain SEQ ID NO 109 (antibody)
heavy: B1 heavy with K32R, T47I, G73V, A77T, P80T, F87L, D92N, S103N, M112I, Y123F
light: B1 light with Q51H, R52S, R75Q, L76M, T122S
B5: 178H 4B1 mAb: mouse monoclonal antibody raised against E1-KLH (56); IgG2b, κ; heavy chain SEQ ID NO 83, light chain SEQ ID NO 107 (antibody)
heavy: MNFGLSLIFLALILKGLQCEVQLVESGGDLVKPGGSLKLSCAASGFTFSRNVMSWVRQTPDKRLEWVATISSGGVHTYYLDSVKGRFTIFRDNAKNTLYLQMNSLQSEDTAMYYCAAGNALDYWGQGTSVTVSSAKTTPPSVYPLAPGCGDTTGSSVTLGCLVKGYFPESVTVTWNSGSLSSSVHTFPALLQSGLYTMSSSVTVPSSTWPSQTVTCSVAHPASSTTVDKKLEPSGPISTINPCPPCKECHKCPAPNLEGGPSVFIFPPNIKDVLMISLTPKVTCVVVDVSEDDPDVRISWFVNNVEVHTAQTQTHREDYNSTIRVVSALPIQHQDWMSGKEFKCKVNNKDLPSPIERTISKIKGLVRAPQVYILPPPAEQLSRKDVSLTCLVVGFNPGDISVEWTSNGHTEENYKDTAPVLDSDGSYFIYSKLDIKTSKWEKTDSFSCNVRHEGLKNYYLKKTISRSPGK
light: B1 light with V23M, A39G, Q51H, R52S, R75Q, L76M, T122S, G125S

test system: E1-OVA (55); experiment: ELISA binding of hybridoma supernatant to E1-OVA (55) coated plates, without inhibitor; settings: hybridoma supernatant mixed with PBS alone
Protocol: All ELISA steps were performed at rt. Wells of a Nunc Maxi-Sorp™ flat-bottom ELISA plates (ThermoFisher Scientific, Waltham, MA) were coated with 50 μL E1-OVA (55), E2-OVA (65), and E3-OVA (72) at a concentration of 1 μg/mL in PBS for 1 h. The plates were flicked dried and remaining binding sites were blocked with 200 μL per well of blocking solution (0.5% casein, 0.05% (v/v) Tween 20 in PBS) for one hour. Plates were washed six times with MilliQ water containing 0.05% (v/v) Tween 20 on Biotek 405 LS plate washer equipped with microplate Biostacker 3 (Biotek, Winooski, VT). 50 μL of serially diluted antibody samples (serial dilutions of serum, hybridoma supernatant, or monoclonal antibodies in PBS) were added to each well and incubated for one hour. Unbound antibodies were removed by washing as described above, and 50 μL of secondary goat anti-rabbit IgG HRP or goat anti-mouse IgG (Fc)-HRP conjugate (ThermoFisher Scientific, USA), diluted 1:3,000 in the blocking solution was added to each well for detection bound rabbit or mouse antibody, respectively. Plates were incubated for one hour, washed and 100 μL of TMB substrate (Moss, Pasadena, MD) was added for 15 min to determine bound peroxidase. Optical density (OD) of the samples at 650 nm was measured using an ELISA plate reader (Molecular Devices LLC., San Jose, CA). The titer of each serum sample was designated as the maximum dilution that yielded at least twice the absorbance of the same dilution of the nonimmune control serum.
(§1) The supernatants were screened in a competitive ELISA for the presence of anti-ecstasy compound monoclonal antibodies (mAbs) as follows. 25 μL of the hybridoma supernatant was mixed with equal volume of PBS alone or containing 20 μg/mL inhibitor (MDA or MDMA) were incubated for 1 h in the wells of E1-OVA (55) coated ELISA plates. The plates were washed and the presence of bound mAbs were detected using goat anti-mouse IgG (Fc)-HRP conjugate and TMB substrate as described above. The level of inhibition of mAb/E1-OVA (55) binding in the presence of the inhibitor was estimated using a Percent (%) Inhibition calculated by the below formula:
[formula] • where “OD650 nm w/o Inhibitor” is the binding response of the antibody sample diluted in PBS alone (with no inhibitor), and the “OD650 nm with Inhibitor” is the binding response of the same antibody sample in the presence of 10 μg/mL of inhibitor (i.e., MDA or MDMA). […]

Row | Molecule | E1-OVA (55) Binding, OD650 nm w/o inhib
1 | B1 | 4.000 OD650 nm
2 | B2 | 1.930 OD650 nm
3 | B3 | 3.390 OD650 nm
4 | B4 | 3.012 OD650 nm
5 | B5 | 3.164 OD650 nm

test system: not listed separately; experiment: Competitive ELISA screening of hybridoma supernatants on E1-OVA (55), inhibitor MDA; format: binding; settings: hybridoma supernatant in the presence of 10 μg/mL MDA
Protocol: (§2) Competitive ELISA was used to assess the presence of anti-Ecstasy-class antibodies in animal sera, hybridoma supernatants, and monoclonal antibody (mAb) samples as well as to estimate the level of antibody cross reactivity to amphetamine (Amph) and methamphetamine (mAmph). Antisera and antibody samples were used at the dilution giving a response of about OD=1 at 650 nm (OD650 nm) in an indirect ELISA. Hybridoma supernatants were diluted 1:2 in PBS. (±)-MDMA, (±)-MDA, (±)-amphetamine, and (±)-methamphetamine were used as inhibitors (Cerilliant Corporation, Round Rock, TX). Microtiter ELISA plates were coated and blocked as described above for indirect ELISA. The inhibitors were serially diluted in PBS. 25 μL of the diluted inhibitor was mixed with 25 μL of fixed appropriate antiserum or antibody sample dilution. The mixture was incubated over the E1-OVA (55) solid phase for 1 h. The plates were washed as described above and the bound antibodies were detected with anti-rabbit or anti-mouse IgG HRP-conjugates and TMB substrate as described above.
as §1
(§3) [formula] • where “OD650 nm w/o Inhibitor” is the binding response of the antibody sample diluted in PBS alone (with no inhibitor), and the “OD650 nm with Inhibitor” is the binding response of the same antibody sample in the presence of 10 μg/mL of inhibitor (i.e., MDA or MDMA).

Row | Molecule | E1-OVA (55) Binding, OD650 nm +MDA
6 | B1 | 0.730 OD650 nm
7 | B2 | 0.091 OD650 nm
8 | B3 | 0.316 OD650 nm
9 | B4 | 0.254 OD650 nm
10 | B5 | 0.105 OD650 nm

same assay, conditions: inhibition of mAb/E1-OVA (55) binding

Row | Molecule | % Inhibition by 10 μg/mL of MDA
11 | B1 | 82%
12 | B2 | 95%
13 | B3 | 91%
14 | B4 | 93%
15 | B5 | 97%

test system: not listed separately; experiment: Competitive ELISA screening of hybridoma supernatants on E1-OVA (55), inhibitor MDMA; format: binding; settings: hybridoma supernatant in the presence of 10 μg/mL MDMA
Protocol: as §2, §1, §3

Row | Molecule | E1-OVA (55) Binding, OD650 nm +MDMA
16 | B1 | 0.667 OD650 nm
17 | B2 | 0.088 OD650 nm
18 | B3 | 0.301 OD650 nm
19 | B4 | 0.359 OD650 nm
20 | B5 | 0.093 OD650 nm

same assay, conditions: inhibition of mAb/E1-OVA (55) binding

Row | Molecule | % Inhibition by 10 μg/mL of MDMA
21 | B1 | 83%
22 | B2 | 95%
23 | B3 | 91%
24 | B4 | 88%
25 | B5 | 98%

test system: not listed separately; experiment: Prototype EMIT ecstasy assay, cross-reactivity with amphetamine; format: biochemical; settings: conjugate Compound 58; negative urine pool

Row | Molecule | Concentrations (μg/mL) of Structurally Related Compounds Equivalent to 500 ng/mL MDMA Cutoffs, (+/−) Amph
26 | B2 | 40 to 45 µg/mL
27 | B4 | 30 µg/mL
28 | B5 | 40 µg/mL

test system: not listed separately; experiment: Prototype EMIT ecstasy assay, cross-reactivity with methamphetamine; format: biochemical; settings: conjugate Compound 58; negative urine pool

Row | Molecule | Concentrations (μg/mL) of Structurally Related Compounds Equivalent to 500 ng/mL MDMA Cutoffs, (+/−) mAmph
29 | B2 | 50 to 60 µg/mL
30 | B4 | 30 µg/mL
31 | B5 | 40 to 50 µg/mL

test system: not listed separately; experiment: Competitive ELISA of purified antibodies on E1-OVA (55), MDMA and MDA reactivity; format: binding; settings: 10,000-0.1 ng/mL range of drug concentration
Protocol: as §2
(§4) The anti-ecstasy class mAbs were purified from clarified and filtered hybridoma culture supernatants on a recombinant Protein A Sepharose Fast Flow (GE Life Sciences, Boston USA), dialyzed against PBS containing 0.02% sodium azide and stored at 4° C. The purified mAbs were tested for MDA and MDMA reactivity as well as amphetamine (Amph) and methamphetamine (mAmph) cross reactivity in a competitive assay.

Row | Molecule | relative sensitivity to MDMA and MDA in competitive ELISA
32 | B1 | bind MDMA stronger than MDA
33 | B5 | bind MDMA stronger than MDA

test system: not listed separately; experiment: Competitive ELISA of purified antibodies on E1-OVA (55), amphetamine and methamphetamine cross reactivity; format: binding; settings: not given
Protocol: as §2, §4

Row | Molecule | cross reactivity in the presence of 1,000 ng/ml of Amph or mAmph
34 | B1 | do not show any significant cross reactivity
35 | B2 | do not show any significant cross reactivity
36 | B3 | do not show any significant cross reactivity
37 | B4 | do not show any significant cross reactivity
